The sequences below were run against HLA-A*02:01 (assay: IEDB peptide-MHC binding, cellular MHC/competitive/fluorescence; ≥ and ≤ were set here for values at or beyond the usual limits of such assays). Conditions: source organism: Influenza A virus.

Row | Sequence | IC50
1 | ITFMQALQLL | 7.71 µM

Same assay, conditions: source organism: Vaccinia virus WR

Row | Sequence | IC50
2 | VAVAAASST | 13.5 µM
3 | PVKRIIDSEV | 33.8 µM
4 | LTNVVNISTI | ≥ 70 µM
5 | LITSAFDLL | 30.3 µM
6 | PVSTNGKIVM | ≥ 70 µM
7 | TVTNLISET | 31.1 µM
8 | EVFHCMDIL | 12 µM
9 | EVVVFGEAV | 13.4 µM
10 | NVEEDLARNL | ≥ 70 µM
11 | DAAVAVAAA | 5.2 µM
12 | DIRTLLPIL | 37.6 µM
13 | VTLNASQYA | 5.01 µM
14 | EQRSTAYEI | 8.92 µM
15 | EINATDIII | 17.1 µM
16 | EATYHIIIV | 11 µM
17 | KILTREMGFL | 5.47 µM
18 | IAHLLEHLLI | 15.7 µM
19 | DLENNLVKL | 16.2 µM
20 | EVFNREYNNV | 13.2 µM
21 | LAIDFGNGA | 46.6 µM
22 | LIVRLNQCM | 19.8 µM
23 | GIAHLLEHLL | 7.4 µM
24 | VTFNPVSDI | 46.3 µM
25 | STSITVNEV | 12.6 µM
26 | MVISLLSMIT | 9.75 µM

Row | Sequence | IC50
27 | NIGKIIMSL | 7.04 µM
28 | GIPITIRVT | 18.7 µM
29 | RINDDSKSI | 13.4 µM
30 | KTFIIHKNL | 9.47 µM
31 | NIGIVLSNT | 14.6 µM
32 | SVEPYTSNI | 17.3 µM
33 | VVELEPSLAT | ≥ 70 µM
34 | TTLSRHIFM | 6.42 µM
35 | DAFSREYSMT | ≥ 70 µM
36 | ILHRLHEILT | 12.6 µM
37 | DIEPDLENNL | 54.4 µM
38 | LQTIEIIFT | 9.68 µM
39 | EVFINDNGI | ≥ 70 µM
40 | SISKSNAKCI | ≥ 70 µM
41 | GVIFLISVIV | 5.83 µM
42 | PINAPIKTFM | 7.62 µM
43 | TIGNQLYLT | 18.3 µM
44 | ATDPDADAIA | ≥ 70 µM
45 | RQLAKAIIT | 9.8 µM
46 | IVGLDLENL | 14.2 µM
47 | IAMKVIQGI | 7.73 µM
48 | SQHQHLAIM | 13.5 µM
49 | FINDRMKKDI | ≥ 70 µM
50 | QLKGFYMISL | 9.02 µM
51 | FTNLLSKNT | 13.1 µM

Row | Sequence | IC50
52 | LTVSFIDET | ≥ 70 µM
53 | WIKTISKRM | 23.6 µM
54 | RIVVYNPSTM | ≥ 70 µM
55 | NQHNIIVEHL | ≥ 70 µM
56 | LARNLGLVDI | ≥ 70 µM
57 | VTLQKVLHVT | 35.9 µM
58 | VLTTPGLNHA | ≥ 70 µM
59 | DAFSREYSM | 7.57 µM
60 | VISPMGKLT | 8.49 µM
61 | CVVYPGNGFV | 24.9 µM
62 | KQTFGSLPA | 18.9 µM
63 | TLPSIFLIIT | 9.73 µM
64 | PTMKIFYKHI | ≥ 70 µM
65 | STMEDRPST | 32.6 µM
66 | KLKYFLGSGA | 7.19 µM
67 | DLYNGGRIDM | 29.5 µM
68 | LLTKSNNGT | 13.9 µM
69 | YVTLNASQYA | 23.1 µM
70 | GIKEDETVST | 41.7 µM
71 | VVSRHLTNDA | ≥ 70 µM
72 | YIIRRSGCRI | 43.1 µM
73 | VVSSSTIAT | 11 µM
74 | ITPDVIINST | ≥ 70 µM
75 | AVEHIPTMKI | 14.3 µM
76 | LTAVEHIPT | ≥ 70 µM

Row | Sequence | IC50
77 | IVRDMLVNRM | 14.4 µM
78 | NISTIQESFI | ≥ 70 µM
79 | TAVEHIPTM | 15.9 µM
80 | GIRVKHSFSA | 6.87 µM
81 | VTKVNNYDDT | ≥ 70 µM
82 | TVTNLISETL | 16.6 µM
83 | QARNIQKIT | 6.7 µM
84 | TLTGSPSST | 28.6 µM
85 | DLFPKQTIQT | 12.9 µM
86 | TMDGDKLSKL | ≥ 70 µM
87 | EIRDQYITA | ≥ 70 µM
88 | FVFYKPKHST | ≥ 70 µM
89 | LVITKLREHM | ≥ 70 µM
90 | PTLDNILGI | 6.67 µM
91 | IVVELEPSLA | 9.09 µM
92 | SIPLMKRLT | ≥ 70 µM
93 | YITSGKNNM | 51.6 µM
94 | TIENALVASL | 14.4 µM
95 | NVVSSSTIAT | ≥ 70 µM
96 | IIPSSIPVST | 17.1 µM
97 | ELIAFSSGT | 5.34 µM
98 | EIFIRYGDA | 30.5 µM
99 | ELEPSLATFI | 11.2 µM
100 | PTNKLQAAV | 6.43 µM
101 | TIQESFIRFT | ≥ 70 µM

Row | Sequence | IC50
102 | STNGKIVMT | ≥ 70 µM
103 | DLSKLSKDV | 6.36 µM
104 | ILANRDSTL | 11 µM
105 | SINSATESDA | 32.7 µM
106 | GVIFLISVI | 12.1 µM
107 | AQSKSSLLHA | 32.9 µM
108 | IVRCCAGDDI | 10.7 µM
109 | SQSERDNYIT | ≥ 70 µM
110 | ELVFIKPPL | 28 µM
111 | PLSKVHGLDV | 37.9 µM
112 | MTENVEEDL | 22.1 µM
113 | KLIIDREVV | 6.63 µM
114 | MQHPREENSI | 27.4 µM
115 | ELQKFSFKIA | ≥ 70 µM
116 | TLSLSKQDI | 11.7 µM
117 | VTKTDGIPI | 8.57 µM
118 | ATESDAIRT | 10.8 µM
119 | KITFALKKLI | 64.7 µM
120 | ILFLLFVCI | 5.69 µM
121 | TTSEVVDML | 6.04 µM
122 | GAIYKLGSSI | 36.6 µM
123 | IVVYNPSTM | 56.2 µM
124 | EVRKYFCVKT | 23.2 µM
125 | DMIHNVIDDV | 19.8 µM

Source: the Immune Epitope Database (IEDB)
